# Results reported in PMC3675490.
# Like-named read-outs stand apart in the source and are kept apart here.
# What was measured:
# Hfq65 R16A/R17A [1] = target: T1, Hfq65 R16A/R17A (Escherichia coli, UniProt P0A6X3 1-65, R16A;R17A); assay: NMR titration
# Hfq65 [2] = target: T2, Hfq65 (Escherichia coli, UniProt P0A6X3 1-65); assay: X-ray crystallography
# HfqFL Y25A = HfqFL Y25A (Escherichia coli, UniProt P0A6X3 1-102, Y25A); assay: fluorescence polarization
# HfqFL WT = HfqFL WT (Escherichia coli, UniProt P0A6X3 1-102); assay: EMSA
# HfqFL F42S = HfqFL F42S (Escherichia coli, UniProt P0A6X3 1-102, F42S); assay: fluorescence polarization
# Hfq65 [3] = target: T2, Hfq65; assay: X-ray crystallography; remark: listed apart in the source
# Hfq65 R16A/R17A [4] = target: T1, Hfq65 R16A/R17A; assay: NMR titration; remark: listed apart in the source
binder,measurement,setting,value
AUUUUUUA (ssRNA) [AU6A (unlabeled)],binding result,Hfq65 R16A/R17A [1],binds
same,binding result,Hfq65 [2],binds
AUUUUUUA (ssRNA) [AU6A],binding result,HfqFL Y25A,binds
GGGAACAACAAGAAGUUAAGGCGGGGCAAAAAAUA (ssRNA) [rpoS-AA],binding result,HfqFL WT,binds
AAAAAAA (ssRNA) [A7],binding result,HfqFL F42S,binds
AAAAAAA (ssRNA) [A7 (unlabeled)],binding result,Hfq65 [3],binds
AACAACAAG (ssRNA) [rpoS-AC],binding result,HfqFL F42S,binds
AACAACAAG (ssRNA) [rpoS-AC (unlabeled)],binding result,Hfq65 R16A/R17A [4],binds
